Source: PMC6202329

Tests used:
Test in all cases: complementary split luciferase
Conditions in all cases: n = 5; parent: est. 1.0; read off a plot
[1] = biological target: ARAF(DDEE/L358M) fused to Nluc or Cluc (UniProt P10398)
[2] = biological target: ARAF(DDEE/L358M/APE) fused to Nluc or Cluc (UniProt P10398)
[3] = biological target: ARAF(DDEE/L358M/R362H/APE) fused to Nluc or Cluc (UniProt P10398)
[4] = biological target: ARAF(DDEE/L358M/R362H) fused to Nluc or Cluc (UniProt P10398)

ARAF (wild type) fused to Nluc or Cluc (from UniProt P10398) DGEE; L358M
response [1]: 3.3

ARAF (wild type) fused to Nluc or Cluc (from UniProt P10398) DGEE; L358M; APE
response [2]: 5.4

ARAF (wild type) fused to Nluc or Cluc (from UniProt P10398) DGEE; L358M; APE; R362H
response [3]: 3.6

ARAF (wild type) fused to Nluc or Cluc (from UniProt P10398) DGEE; L358M; R362H
response [4]: 1.1
